The chains are these.
B1: SCNN1D (parent)
chain: FYRLYQDLETHRLPCTSRCPRPCR

Data on 94 variants can be found in the supplement of paper PMC10567573.
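Note: lentivirally expressed fusions sorted by FACS into six bins by GFP to DsRed ratio, PSI derived from sequencing read proportions per bin multiplied by bin number.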

In the data set the parent is B1. The data set can be described thus: protein stability index of a GFP-peptide fusion (GPS, HEK-293T) (PSI 1-6); higher = more stable. The note with it: c terminus: a fixed tail appended.
Regarding FYRLYQDLETYRLPCTSRCPRPCR [H11Y], the protein stability index amounted to 1.97.

With FYRLYQDLETTRLPCTSRCPRPCR [H11T], the protein stability index was 2.79.

In the case of FYRLYQDLETNRLPCTSRCPRPCR [H11N], the protein stability index was 1.93.

Take FYRLYQDLETRRLPCTSRCPRPCR [H11R]: the protein stability index turned out to be 2.48.

Take FYRLYQDLETVRLPCTSRCPRPCR [H11V]: the protein stability index was determined as 1.98.

For FYRLYQDLETPRLPCTSRCPRPCR [H11P], the protein stability index worked out at 2.

Regarding FYRLYQDLETSRLPCTSRCPRPCR [H11S], the protein stability index came to 2.21.

Consider FYRLYQDLETQRLPCTSRCPRPCR [H11Q], for which the protein stability index is 2.37.

As for FYRLYQDLETWRLPCTSRCPRPCR [H11W], the protein stability index stood at 2.05.

Regarding FYRLYQDLETHRLMCTSRCPRPCR [P14M], the protein stability index came out at 1.6.

As to FYRLYQDLETHRLWCTSRCPRPCR [P14W], the protein stability index was 1.57.

In the case of FYRLYQDLETHRLSCTSRCPRPCR [P14S], the protein stability index is 2.44.

Consider FYRLYQDLETHRLHCTSRCPRPCR [P14H], for which the protein stability index is 1.97.

Turning to FYRLYQDLETHRLQCTSRCPRPCR [P14Q], the protein stability index stood at 1.94.

With FYRLYQDLETHRLGCTSRCPRPCR [P14G], the protein stability index was 2.3.

On to FYRLYQDLETHRLACTSRCPRPCR [P14A], for which the protein stability index amounted to 2.01.

As to FYRLYQDLETHRLYCTSRCPRPCR [P14Y], the protein stability index is 1.45.

Take FYRLYQDLETHRLICTSRCPRPCR [P14I]: the protein stability index was 1.53.

On to FYRLYQDLETHRLFCTSRCPRPCR [P14F], for which the protein stability index was found to be 1.79.

In the case of FYRLYQDLETHRLVCTSRCPRPCR [P14V], the protein stability index was 1.47.

Turning to FYRLYQDLETHRLCCTSRCPRPCR [P14C], the protein stability index was 1.44.

FYRLYQDLETHRLTCTSRCPRPCR [P14T]: the protein stability index was determined as 1.76.

Turning to FYRLYQDLETHRLKCTSRCPRPCR [P14K], the protein stability index is 1.89.

FYRLYQDLETHRLDCTSRCPRPCR [P14D]: the protein stability index turned out to be 2.06.

For the variant FYRLYQDLETHRLLCTSRCPRPCR [P14L], the protein stability index turned out to be 3.27.

For FYRLYQDLETHRLNCTSRCPRPCR [P14N], the protein stability index worked out at 1.96.

Regarding FYRLYQDLETHRLECTSRCPRPCR [P14E], the protein stability index came out at 2.39.

On to FYRLYQDLETHRLRCTSRCPRPCR [P14R], for which the protein stability index amounted to 2.09.

Consider FYRLYQDLETHALPCTSRCPRPCR [R12A], for which the protein stability index turned out to be 3.03.

Take FYRLYQDLETHPLPCTSRCPRPCR [R12P]: the protein stability index turned out to be 2.64.

Take FYRLYQDLETHMLPCTSRCPRPCR [R12M]: the protein stability index came to 2.33.

Consider FYRLYQDLETHQLPCTSRCPRPCR [R12Q], for which the protein stability index came to 2.47.

As for FYRLYQDLETHHLPCTSRCPRPCR [R12H], the protein stability index stood at 3.03.

In the case of FYRLYQDLETHTLPCTSRCPRPCR [R12T], the protein stability index is 2.1.

Consider FYRLYQDLETHNLPCTSRCPRPCR [R12N], for which the protein stability index was determined as 2.22.

For FYRLYQDLETHILPCTSRCPRPCR [R12I], the protein stability index is 1.42.

In the case of FYRLYQDLETHGLPCTSRCPRPCR [R12G], the protein stability index stood at 2.47.

In the case of FYRLYQDLETHCLPCTSRCPRPCR [R12C], the protein stability index was 2.3.

For FYRLYQDLETHLLPCTSRCPRPCR [R12L], the protein stability index worked out at 2.05.

Regarding FYRLYQDLETHWLPCTSRCPRPCR [R12W], the protein stability index came out at 2.

With FYRLYQDLETHFLPCTSRCPRPCR [R12F], the protein stability index was found to be 2.41.

For FYRLYQDLETHKLPCTSRCPRPCR [R12K], the protein stability index was 2.37.

In the case of FYRLYQDLETHYLPCTSRCPRPCR [R12Y], the protein stability index came out at 1.78.

Turning to FYRLYQDLETHELPCTSRCPRPCR [R12E], the protein stability index was determined as 2.5.

Take FYRLYQDLETHSLPCTSRCPRPCR [R12S]: the protein stability index worked out at 3.51.

In the case of FYRLYQDLETHVLPCTSRCPRPCR [R12V], the protein stability index was found to be 1.93.

Consider FYRLYQDLETHDLPCTSRCPRPCR [R12D], for which the protein stability index came out at 2.4.

Turning to FYRLYQDLETHRLPYTSRCPRPCR [C15Y], the protein stability index is 1.8.

Turning to FYRLYQDLETHRLPFTSRCPRPCR [C15F], the protein stability index worked out at 2.71.

Take FYRLYQDLETHRLPATSRCPRPCR [C15A]: the protein stability index was 2.07.

On to FYRLYQDLETHRLPMTSRCPRPCR [C15M], for which the protein stability index worked out at 1.73.

As to FYRLYQDLETHRLPGTSRCPRPCR [C15G], the protein stability index came out at 2.47.

In the case of FYRLYQDLETHRLPWTSRCPRPCR [C15W], the protein stability index worked out at 1.75.

Consider FYRLYQDLETHRLPRTSRCPRPCR [C15R], for which the protein stability index amounted to 2.3.

Turning to FYRLYQDLETHRLPHTSRCPRPCR [C15H], the protein stability index is 2.28.

As for FYRLYQDLETHRLPITSRCPRPCR [C15I], the protein stability index was 2.48.

As to FYRLYQDLETHRLPQTSRCPRPCR [C15Q], the protein stability index was 1.76.

On to FYRLYQDLETHRLPTTSRCPRPCR [C15T], for which the protein stability index is 2.

On to FYRLYQDLETHRLPDTSRCPRPCR [C15D], for which the protein stability index came out at 2.24.

As to FYRLYQDLETHRLPPTSRCPRPCR [C15P], the protein stability index came out at 1.85.

For FYRLYQDLETHRLPSTSRCPRPCR [C15S], the protein stability index stood at 2.64.

Consider FYRLYQDLETHRLPCTSDCPRPCR [R18D], for which the protein stability index is 1.78.

As to FYRLYQDLETHRLPCTSGCPRPCR [R18G], the protein stability index was found to be 2.54.

As to FYRLYQDLETHRLPCTSPCPRPCR [R18P], the protein stability index was found to be 1.74.

For the variant FYRLYQDLETHRLPCTSHCPRPCR [R18H], the protein stability index is 1.91.

Turning to FYRLYQDLETHRLPCTSVCPRPCR [R18V], the protein stability index amounted to 1.4.

For the variant FYRLYQDLETHRLPCTSFCPRPCR [R18F], the protein stability index was found to be 1.79.

Consider FYRLYQDLETHRLPCTSYCPRPCR [R18Y], for which the protein stability index is 1.78.

As for FYRLYQDLETHRLPCTSSCPRPCR [R18S], the protein stability index was found to be 1.94.

As for FYRLYQDLETHRLPCTSICPRPCR [R18I], the protein stability index was found to be 1.15.

Turning to FYRLYQDLETHRLPCTSCCPRPCR [R18C], the protein stability index turned out to be 1.51.

For the variant FYRLYQDLETHRLPCTSNCPRPCR [R18N], the protein stability index stood at 2.18.

With FYRLYQDLETHRLPCTSLCPRPCR [R18L], the protein stability index amounted to 1.86.

As for FYRLYQDLETHRLPCTSMCPRPCR [R18M], the protein stability index came to 2.29.

As for FYRLYQDLETHRLPCTSTCPRPCR [R18T], the protein stability index was 2.15.

FYRLYQDLETHRYPCTSRCPRPCR [L13Y]: the protein stability index is 1.72.

For the variant FYRLYQDLETHRIPCTSRCPRPCR [L13I], the protein stability index was found to be 2.38.

For the variant FYRLYQDLETHRRPCTSRCPRPCR [L13R], the protein stability index worked out at 3.39.

For the variant FYRLYQDLETHRHPCTSRCPRPCR [L13H], the protein stability index stood at 2.38.

Take FYRLYQDLETHRDPCTSRCPRPCR [L13D]: the protein stability index was 2.19.

Turning to FYRLYQDLETHRGPCTSRCPRPCR [L13G], the protein stability index was 2.66.

Turning to FYRLYQDLETHRNPCTSRCPRPCR [L13N], the protein stability index was 2.23.

Take FYRLYQDLETHRAPCTSRCPRPCR [L13A]: the protein stability index was 2.42.

On to FYRLYQDLETHRKPCTSRCPRPCR [L13K], for which the protein stability index was 2.63.

On to FYRLYQDLETHRQPCTSRCPRPCR [L13Q], for which the protein stability index came out at 2.03.

For the variant FYRLYQDLETHRMPCTSRCPRPCR [L13M], the protein stability index amounted to 2.24.

On to FYRLYQDLETHRTPCTSRCPRPCR [L13T], for which the protein stability index was determined as 2.97.

With FYRLYQDLETHRSPCTSRCPRPCR [L13S], the protein stability index was 2.67.

Take FYRLYQDLETHRCPCTSRCPRPCR [L13C]: the protein stability index is 1.85.

Regarding FYRLYQDLETHRWPCTSRCPRPCR [L13W], the protein stability index came out at 2.21.

With FYRLYQDLETHREPCTSRCPRPCR [L13E], the protein stability index came to 3.25.

With FYRLYQDLETHRFPCTSRCPRPCR [L13F], the protein stability index came to 2.33.

In the case of FYRLYQDLETHRLPCTSRTPRPCR [C19T], the protein stability index was found to be 3.26.

As to FYRLYQDLETHRLPCTSRPPRPCR [C19P], the protein stability index was determined as 2.03.
